Results taken from US20200087347 (published 2020).
Where no end group is shown, it is not given here. Side-chain parts run from the residue outwards. [ ]: non-standard residue; d: D form. The star is where a group is joined. BODIPY(FL) = CC1=CC(C)=[N+]2C1=Cc1ccc(CCC(=O)*)n1[B-]2(F)F; NMeK = CN[C@@H](CCCCN)C(=O)O; BDPFL = dye

T1: integrin αvβ5 (human, UniProt P06756)
T1 chain 1: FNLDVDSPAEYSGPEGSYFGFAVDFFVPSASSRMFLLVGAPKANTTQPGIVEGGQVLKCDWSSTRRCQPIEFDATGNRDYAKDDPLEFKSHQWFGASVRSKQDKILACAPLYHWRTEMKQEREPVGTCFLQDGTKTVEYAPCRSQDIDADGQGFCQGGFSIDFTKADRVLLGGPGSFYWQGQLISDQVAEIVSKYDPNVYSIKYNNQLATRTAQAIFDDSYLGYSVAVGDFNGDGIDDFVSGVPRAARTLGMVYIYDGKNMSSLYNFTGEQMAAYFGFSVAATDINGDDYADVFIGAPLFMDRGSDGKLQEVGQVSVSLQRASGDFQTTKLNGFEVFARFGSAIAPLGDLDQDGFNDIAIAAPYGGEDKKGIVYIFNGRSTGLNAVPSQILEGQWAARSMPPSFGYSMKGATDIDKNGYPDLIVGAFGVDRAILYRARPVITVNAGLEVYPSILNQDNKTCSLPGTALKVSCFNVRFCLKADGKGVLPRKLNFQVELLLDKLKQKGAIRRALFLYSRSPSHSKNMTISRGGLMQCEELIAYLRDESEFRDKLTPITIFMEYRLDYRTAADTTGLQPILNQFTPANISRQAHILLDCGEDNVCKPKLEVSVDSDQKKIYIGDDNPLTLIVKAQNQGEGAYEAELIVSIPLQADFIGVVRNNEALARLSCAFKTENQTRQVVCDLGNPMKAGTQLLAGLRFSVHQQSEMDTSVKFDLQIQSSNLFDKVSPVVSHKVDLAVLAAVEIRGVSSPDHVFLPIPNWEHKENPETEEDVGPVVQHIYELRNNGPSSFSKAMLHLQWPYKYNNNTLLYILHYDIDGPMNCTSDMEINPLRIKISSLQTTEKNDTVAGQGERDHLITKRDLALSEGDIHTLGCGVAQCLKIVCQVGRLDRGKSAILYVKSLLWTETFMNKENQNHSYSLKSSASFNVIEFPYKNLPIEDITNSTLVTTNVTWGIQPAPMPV
T1 chain 2: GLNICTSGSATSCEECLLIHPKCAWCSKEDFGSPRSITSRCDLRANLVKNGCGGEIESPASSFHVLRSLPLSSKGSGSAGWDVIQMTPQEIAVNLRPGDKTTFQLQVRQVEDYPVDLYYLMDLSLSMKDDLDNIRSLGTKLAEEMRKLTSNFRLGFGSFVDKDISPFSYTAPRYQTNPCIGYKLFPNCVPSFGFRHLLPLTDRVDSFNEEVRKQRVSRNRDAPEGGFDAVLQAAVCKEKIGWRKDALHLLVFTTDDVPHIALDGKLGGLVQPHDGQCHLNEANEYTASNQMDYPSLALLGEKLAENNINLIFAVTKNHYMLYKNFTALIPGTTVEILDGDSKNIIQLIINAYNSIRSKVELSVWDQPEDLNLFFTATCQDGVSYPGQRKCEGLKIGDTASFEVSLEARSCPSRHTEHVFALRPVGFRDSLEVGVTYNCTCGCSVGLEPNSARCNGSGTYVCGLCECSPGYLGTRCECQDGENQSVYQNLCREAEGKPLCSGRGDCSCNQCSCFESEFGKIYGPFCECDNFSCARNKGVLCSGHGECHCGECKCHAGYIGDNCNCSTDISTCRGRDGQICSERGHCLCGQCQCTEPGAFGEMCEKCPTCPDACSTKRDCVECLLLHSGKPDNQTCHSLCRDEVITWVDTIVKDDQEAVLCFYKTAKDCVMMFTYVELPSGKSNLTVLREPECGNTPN

T2: integrin αvβ3 (human, UniProt P06756)
T2 chain 1: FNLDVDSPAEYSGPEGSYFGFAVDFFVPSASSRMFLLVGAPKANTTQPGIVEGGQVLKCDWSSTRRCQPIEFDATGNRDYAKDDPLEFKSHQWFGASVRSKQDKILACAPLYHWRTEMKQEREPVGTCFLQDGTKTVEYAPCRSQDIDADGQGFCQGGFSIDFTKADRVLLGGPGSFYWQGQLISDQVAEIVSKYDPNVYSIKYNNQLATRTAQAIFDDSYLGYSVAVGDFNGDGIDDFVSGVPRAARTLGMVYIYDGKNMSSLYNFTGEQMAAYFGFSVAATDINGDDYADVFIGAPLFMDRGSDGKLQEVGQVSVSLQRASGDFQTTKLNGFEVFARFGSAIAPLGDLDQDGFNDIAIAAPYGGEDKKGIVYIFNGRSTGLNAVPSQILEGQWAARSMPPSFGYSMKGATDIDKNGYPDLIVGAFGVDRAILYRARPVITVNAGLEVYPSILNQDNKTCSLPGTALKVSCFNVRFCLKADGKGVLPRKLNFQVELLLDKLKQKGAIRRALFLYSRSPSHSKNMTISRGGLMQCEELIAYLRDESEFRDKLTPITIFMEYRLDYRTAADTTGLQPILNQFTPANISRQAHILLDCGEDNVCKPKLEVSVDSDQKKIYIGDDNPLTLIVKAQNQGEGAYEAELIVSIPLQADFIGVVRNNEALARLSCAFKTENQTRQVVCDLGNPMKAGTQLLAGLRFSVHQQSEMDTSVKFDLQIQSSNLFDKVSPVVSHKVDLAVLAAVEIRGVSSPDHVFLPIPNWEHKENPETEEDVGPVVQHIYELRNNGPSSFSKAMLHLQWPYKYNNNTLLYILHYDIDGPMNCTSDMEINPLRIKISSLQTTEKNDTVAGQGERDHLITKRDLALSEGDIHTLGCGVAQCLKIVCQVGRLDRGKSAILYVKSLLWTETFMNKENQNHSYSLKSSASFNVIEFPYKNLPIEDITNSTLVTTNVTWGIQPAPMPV
T2 chain 2: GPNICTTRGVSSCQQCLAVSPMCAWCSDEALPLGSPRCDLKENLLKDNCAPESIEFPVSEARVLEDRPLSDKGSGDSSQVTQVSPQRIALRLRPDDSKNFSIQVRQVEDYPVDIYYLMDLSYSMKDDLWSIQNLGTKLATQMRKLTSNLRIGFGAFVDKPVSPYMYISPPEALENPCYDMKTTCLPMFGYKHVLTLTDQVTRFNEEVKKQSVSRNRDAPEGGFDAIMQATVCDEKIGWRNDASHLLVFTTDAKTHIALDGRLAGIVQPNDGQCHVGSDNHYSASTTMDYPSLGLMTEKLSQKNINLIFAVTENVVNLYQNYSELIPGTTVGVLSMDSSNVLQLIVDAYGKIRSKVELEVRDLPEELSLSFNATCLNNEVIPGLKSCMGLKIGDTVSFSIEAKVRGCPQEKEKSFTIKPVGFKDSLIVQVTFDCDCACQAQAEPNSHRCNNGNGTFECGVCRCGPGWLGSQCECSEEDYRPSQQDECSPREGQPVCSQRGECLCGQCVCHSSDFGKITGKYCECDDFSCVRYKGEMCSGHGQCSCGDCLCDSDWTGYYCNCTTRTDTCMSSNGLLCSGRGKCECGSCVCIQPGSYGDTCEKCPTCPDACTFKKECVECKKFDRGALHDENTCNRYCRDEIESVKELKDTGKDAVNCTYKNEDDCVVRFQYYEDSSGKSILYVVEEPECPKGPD

T3: integrin αvβ6 (human, UniProt P06756)
T3 chain 1: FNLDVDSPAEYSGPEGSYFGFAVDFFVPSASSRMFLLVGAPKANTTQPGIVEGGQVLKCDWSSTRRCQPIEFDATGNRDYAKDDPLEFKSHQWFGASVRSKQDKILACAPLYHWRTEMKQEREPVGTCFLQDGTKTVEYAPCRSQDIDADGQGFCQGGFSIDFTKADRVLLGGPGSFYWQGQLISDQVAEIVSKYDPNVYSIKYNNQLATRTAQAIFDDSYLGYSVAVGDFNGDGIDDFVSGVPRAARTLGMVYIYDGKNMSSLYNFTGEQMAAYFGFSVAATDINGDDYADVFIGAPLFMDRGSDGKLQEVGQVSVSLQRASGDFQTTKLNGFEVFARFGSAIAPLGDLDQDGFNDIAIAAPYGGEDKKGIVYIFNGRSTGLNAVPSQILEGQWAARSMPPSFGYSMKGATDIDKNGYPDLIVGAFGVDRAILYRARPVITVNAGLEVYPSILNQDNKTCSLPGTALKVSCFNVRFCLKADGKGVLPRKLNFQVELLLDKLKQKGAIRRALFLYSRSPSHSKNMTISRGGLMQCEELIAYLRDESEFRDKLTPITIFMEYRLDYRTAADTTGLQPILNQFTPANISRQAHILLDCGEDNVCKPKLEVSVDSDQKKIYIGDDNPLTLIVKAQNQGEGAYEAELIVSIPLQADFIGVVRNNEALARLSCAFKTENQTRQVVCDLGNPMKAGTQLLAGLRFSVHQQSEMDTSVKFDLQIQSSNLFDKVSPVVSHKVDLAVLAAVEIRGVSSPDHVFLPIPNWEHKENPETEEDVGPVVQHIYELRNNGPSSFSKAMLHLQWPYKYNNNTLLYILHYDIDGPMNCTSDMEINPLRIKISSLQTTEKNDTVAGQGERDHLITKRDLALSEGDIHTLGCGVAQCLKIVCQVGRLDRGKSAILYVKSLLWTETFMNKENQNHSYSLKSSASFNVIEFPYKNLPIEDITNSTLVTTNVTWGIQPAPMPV
T3 chain 2: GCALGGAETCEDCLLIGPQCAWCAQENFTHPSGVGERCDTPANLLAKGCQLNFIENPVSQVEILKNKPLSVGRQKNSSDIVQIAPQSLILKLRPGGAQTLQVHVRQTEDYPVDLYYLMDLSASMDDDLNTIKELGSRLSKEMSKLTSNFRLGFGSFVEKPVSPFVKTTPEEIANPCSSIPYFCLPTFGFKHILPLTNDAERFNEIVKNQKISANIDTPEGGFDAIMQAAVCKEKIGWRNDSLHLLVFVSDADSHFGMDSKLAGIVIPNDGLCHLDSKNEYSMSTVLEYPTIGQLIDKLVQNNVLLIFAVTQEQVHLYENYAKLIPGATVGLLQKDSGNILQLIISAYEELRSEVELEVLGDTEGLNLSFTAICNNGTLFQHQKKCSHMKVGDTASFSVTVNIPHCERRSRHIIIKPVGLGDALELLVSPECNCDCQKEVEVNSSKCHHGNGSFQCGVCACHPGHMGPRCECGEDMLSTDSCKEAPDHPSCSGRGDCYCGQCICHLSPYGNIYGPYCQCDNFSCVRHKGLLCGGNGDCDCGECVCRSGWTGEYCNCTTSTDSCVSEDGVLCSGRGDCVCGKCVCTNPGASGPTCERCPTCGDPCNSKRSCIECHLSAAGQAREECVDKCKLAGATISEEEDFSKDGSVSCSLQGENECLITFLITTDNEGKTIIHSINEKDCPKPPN

T4: integrin αvβ8 (human, UniProt P06756)
T4 chain 1: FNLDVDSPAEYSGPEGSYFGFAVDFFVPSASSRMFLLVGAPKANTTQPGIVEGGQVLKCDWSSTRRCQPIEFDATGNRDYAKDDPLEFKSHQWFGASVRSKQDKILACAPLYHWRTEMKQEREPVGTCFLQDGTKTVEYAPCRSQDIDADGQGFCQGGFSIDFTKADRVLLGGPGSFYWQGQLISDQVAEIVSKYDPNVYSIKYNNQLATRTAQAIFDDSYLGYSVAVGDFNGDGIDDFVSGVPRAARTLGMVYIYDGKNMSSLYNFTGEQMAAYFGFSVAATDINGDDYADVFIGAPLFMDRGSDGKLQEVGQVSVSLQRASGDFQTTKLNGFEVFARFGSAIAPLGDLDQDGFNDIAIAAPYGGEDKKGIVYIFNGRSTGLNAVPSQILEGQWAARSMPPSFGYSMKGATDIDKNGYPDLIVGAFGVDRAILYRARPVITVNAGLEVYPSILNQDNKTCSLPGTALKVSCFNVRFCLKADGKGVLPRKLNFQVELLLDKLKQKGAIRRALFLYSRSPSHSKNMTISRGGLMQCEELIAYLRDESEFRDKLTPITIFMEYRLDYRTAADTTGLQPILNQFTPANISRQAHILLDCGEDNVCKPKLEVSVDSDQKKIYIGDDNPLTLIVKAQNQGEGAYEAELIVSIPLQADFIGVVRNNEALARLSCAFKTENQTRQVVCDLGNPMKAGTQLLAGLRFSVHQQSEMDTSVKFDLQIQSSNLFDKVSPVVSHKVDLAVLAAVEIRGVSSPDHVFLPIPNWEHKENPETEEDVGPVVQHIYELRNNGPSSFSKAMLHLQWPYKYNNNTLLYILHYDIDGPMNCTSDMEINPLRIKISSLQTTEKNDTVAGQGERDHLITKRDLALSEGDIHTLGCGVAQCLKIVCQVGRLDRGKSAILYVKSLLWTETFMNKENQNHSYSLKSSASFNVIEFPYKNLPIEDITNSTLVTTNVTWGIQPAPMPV
T4 chain 2: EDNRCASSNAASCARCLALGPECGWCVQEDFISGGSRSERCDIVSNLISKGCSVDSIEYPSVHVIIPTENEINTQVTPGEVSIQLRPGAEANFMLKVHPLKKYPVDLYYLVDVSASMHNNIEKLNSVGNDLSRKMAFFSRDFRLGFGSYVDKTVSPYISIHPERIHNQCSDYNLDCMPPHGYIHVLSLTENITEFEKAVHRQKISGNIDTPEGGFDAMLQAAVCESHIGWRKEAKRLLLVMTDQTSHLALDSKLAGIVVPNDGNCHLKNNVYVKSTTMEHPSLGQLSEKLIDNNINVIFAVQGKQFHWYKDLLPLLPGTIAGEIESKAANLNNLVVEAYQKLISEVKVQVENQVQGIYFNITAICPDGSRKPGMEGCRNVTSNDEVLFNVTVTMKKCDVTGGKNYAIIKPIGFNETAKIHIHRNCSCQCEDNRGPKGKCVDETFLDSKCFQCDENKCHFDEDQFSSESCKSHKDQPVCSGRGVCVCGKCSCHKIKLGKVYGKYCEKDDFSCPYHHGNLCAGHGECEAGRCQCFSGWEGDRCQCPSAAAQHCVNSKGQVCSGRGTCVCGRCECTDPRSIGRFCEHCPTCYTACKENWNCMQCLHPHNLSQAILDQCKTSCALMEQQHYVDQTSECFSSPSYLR


How the values were obtained:
Assay in all cases: competition
integrin α5β1 = integrin α5β1 (human, UniProt P08648)
Sequence of integrin α5β1 (P08648 42-1049, chain 1 of 2): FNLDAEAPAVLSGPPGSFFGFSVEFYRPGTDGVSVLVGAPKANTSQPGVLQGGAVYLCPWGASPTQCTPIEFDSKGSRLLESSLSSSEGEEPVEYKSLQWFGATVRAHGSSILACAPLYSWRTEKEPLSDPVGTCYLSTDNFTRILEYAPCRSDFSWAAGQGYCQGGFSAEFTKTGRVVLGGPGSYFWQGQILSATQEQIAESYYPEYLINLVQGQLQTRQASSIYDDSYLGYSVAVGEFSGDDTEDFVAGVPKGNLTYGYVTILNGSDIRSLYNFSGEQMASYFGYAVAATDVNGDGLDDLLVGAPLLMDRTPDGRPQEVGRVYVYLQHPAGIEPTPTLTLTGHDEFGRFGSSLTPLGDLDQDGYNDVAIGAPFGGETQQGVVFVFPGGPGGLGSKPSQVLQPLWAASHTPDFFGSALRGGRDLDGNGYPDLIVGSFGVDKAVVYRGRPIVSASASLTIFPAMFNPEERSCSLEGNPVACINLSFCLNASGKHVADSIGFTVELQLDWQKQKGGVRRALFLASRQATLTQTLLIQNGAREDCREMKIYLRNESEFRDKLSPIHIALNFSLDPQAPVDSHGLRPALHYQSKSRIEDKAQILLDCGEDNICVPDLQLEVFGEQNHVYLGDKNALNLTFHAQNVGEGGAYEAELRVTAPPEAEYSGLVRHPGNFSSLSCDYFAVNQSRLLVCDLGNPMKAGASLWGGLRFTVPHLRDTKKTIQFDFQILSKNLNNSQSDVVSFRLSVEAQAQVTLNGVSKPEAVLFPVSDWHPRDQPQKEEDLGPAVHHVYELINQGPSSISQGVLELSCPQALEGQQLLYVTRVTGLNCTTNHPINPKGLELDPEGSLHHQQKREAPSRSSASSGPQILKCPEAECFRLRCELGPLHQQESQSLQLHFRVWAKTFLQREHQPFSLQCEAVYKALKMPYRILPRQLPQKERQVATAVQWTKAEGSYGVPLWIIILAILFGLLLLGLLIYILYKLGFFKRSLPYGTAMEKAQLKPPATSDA
Sequence of integrin α5β1 (chain, as listed by the source, chain 2 of 2): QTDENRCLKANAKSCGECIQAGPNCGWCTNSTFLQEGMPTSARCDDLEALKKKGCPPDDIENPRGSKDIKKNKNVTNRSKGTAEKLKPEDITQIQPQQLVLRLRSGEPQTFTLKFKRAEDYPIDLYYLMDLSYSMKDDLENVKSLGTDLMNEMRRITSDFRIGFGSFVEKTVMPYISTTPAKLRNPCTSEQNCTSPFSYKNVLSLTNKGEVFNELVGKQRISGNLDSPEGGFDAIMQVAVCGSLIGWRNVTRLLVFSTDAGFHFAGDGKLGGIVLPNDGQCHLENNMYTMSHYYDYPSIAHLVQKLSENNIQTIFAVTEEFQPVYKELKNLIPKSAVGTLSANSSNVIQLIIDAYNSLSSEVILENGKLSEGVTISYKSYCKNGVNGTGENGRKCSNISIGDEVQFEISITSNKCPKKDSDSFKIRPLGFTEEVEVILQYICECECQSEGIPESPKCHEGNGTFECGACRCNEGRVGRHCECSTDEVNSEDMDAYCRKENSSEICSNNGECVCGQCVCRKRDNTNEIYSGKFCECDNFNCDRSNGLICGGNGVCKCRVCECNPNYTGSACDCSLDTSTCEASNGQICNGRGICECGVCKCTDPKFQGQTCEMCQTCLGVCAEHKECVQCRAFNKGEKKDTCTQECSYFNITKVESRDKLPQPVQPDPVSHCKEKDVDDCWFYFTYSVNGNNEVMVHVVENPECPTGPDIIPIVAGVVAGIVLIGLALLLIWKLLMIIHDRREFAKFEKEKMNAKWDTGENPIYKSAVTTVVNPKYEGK

integrin αvβ5 = molecular target: T1, integrin αvβ5
integrin αvβ3 = molecular target: T2, integrin αvβ3
integrin αvβ6 = molecular target: T3, integrin αvβ6
integrin αvβ8 = molecular target: T4, integrin αvβ8

Binder | IC50 (integrin α5β1) [nM] | IC50 (integrin αvβ5) [µM] | IC50 (integrin αvβ3) [nM] | IC50 (integrin αvβ6) [nM] | IC50 (integrin αvβ8) [nM]
RGDL[dP][NMeK]([(PEG)5-BODIPY(FL)])GL (not fully specified (bridges); also: cyclic, closure not given here) [Compound 9d (9-(PEG)5-BDPFL)] | 95 | > 10 | 98 | 247 | 1.25
cyclo(RGDL[dP][NMeK]([Gly-Pro-Pro-Pro-Pro-Pro-Pro-Gly-BDPFL])GL) [Compound 9f (9-G(P)6G-BDPFL)] | 782 | > 10 | 42 | 453 | 7.98
